Measurements from patent US20190381086A1 (Scripps Research, published 2019).
One block for each binder: values may come before it.

Experiments:
[1] = target: T1, E1 for neddylation, APPBP1/UBA3 heterodimer (UniProt Q13564 1-534; Q8TBC4 22-463); test: biolayer interferometry, E1 (APPBP1/UBA3) immobilized, analyte 62.5-500 nM
T1 construct: GST-tagged or untagged preparations are mentioned; also called GST-APPBP1/UBA3; NAE; not shown: GST tag on APPBP1 (GST-APPBP1/UBA3)
T1 sequence (looked up) 1: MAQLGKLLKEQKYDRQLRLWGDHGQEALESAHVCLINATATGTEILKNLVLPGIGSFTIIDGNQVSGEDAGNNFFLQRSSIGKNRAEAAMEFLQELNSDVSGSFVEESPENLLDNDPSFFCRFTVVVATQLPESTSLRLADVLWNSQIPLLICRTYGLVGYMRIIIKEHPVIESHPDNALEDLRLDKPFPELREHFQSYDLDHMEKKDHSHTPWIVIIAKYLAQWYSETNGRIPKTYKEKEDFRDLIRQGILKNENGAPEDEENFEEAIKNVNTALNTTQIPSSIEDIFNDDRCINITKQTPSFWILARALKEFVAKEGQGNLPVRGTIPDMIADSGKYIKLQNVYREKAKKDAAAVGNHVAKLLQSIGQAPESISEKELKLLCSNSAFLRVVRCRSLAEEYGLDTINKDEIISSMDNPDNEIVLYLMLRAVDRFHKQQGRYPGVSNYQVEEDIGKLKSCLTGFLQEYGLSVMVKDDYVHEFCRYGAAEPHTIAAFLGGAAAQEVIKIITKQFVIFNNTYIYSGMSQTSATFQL
T1 sequence (looked up) 2: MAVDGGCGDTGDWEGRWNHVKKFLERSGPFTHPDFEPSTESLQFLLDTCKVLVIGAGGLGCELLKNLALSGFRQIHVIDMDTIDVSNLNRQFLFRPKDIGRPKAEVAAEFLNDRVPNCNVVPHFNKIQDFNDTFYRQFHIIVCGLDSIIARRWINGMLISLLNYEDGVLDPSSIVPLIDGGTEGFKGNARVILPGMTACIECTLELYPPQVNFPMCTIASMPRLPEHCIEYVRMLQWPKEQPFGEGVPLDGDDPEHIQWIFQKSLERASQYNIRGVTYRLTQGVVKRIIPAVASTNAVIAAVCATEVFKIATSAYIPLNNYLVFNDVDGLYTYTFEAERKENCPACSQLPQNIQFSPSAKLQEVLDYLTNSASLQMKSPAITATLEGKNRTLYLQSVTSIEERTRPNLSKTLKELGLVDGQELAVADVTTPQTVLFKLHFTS

ABD (V541-E685) of GlyRS = target: T2, ABD (V541-E685) of GlyRS (human, UniProt P41250 595-739); test: GST pull-down on glutathione beads, blot anti-GlyRS
T2 construct: Cloned, expressed and purified in a similar way as the full-length GlyRS; also called ABD GlyRS; ABD domain alone
T2 sequence: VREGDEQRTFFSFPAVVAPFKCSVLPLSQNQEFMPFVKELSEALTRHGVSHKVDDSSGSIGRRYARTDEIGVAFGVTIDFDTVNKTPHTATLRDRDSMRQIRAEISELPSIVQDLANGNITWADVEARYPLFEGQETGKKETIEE

[2] = target: T3, N-terminal GST-tagged GlyRS (human, UniProt P41250 55-739); test: biolayer interferometry (Octet), GlyRS immobilized, 30°C
T3 construct: also called GST-GlyRS; immobilized GlyRS; not shown: N-terminal GST tag from a modified pET28a vector
T3 sequence: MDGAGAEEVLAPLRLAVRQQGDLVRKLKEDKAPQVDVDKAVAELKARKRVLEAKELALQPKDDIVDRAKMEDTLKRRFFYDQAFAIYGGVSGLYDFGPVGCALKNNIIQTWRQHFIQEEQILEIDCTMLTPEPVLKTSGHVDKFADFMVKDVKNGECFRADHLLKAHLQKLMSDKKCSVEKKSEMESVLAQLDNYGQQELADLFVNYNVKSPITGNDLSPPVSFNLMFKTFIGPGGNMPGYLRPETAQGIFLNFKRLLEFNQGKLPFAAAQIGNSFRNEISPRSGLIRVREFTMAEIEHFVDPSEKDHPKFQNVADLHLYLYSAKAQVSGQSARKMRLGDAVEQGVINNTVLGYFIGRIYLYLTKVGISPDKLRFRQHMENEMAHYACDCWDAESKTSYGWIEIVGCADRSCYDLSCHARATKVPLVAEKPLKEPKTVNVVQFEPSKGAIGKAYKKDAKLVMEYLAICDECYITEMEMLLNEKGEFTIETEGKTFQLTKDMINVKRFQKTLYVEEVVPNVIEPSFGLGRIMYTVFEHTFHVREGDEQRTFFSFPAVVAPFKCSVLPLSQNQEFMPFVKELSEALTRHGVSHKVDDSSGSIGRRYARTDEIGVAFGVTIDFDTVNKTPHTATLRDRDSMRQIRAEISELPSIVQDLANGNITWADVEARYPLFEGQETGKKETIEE

[3] = target: T4, GlyRS in HEK293 cells (endogenous) (human, UniProt P41250 55-739, limits assumed); test: co-immunoprecipitation, HEK293 cells
T4 sequence: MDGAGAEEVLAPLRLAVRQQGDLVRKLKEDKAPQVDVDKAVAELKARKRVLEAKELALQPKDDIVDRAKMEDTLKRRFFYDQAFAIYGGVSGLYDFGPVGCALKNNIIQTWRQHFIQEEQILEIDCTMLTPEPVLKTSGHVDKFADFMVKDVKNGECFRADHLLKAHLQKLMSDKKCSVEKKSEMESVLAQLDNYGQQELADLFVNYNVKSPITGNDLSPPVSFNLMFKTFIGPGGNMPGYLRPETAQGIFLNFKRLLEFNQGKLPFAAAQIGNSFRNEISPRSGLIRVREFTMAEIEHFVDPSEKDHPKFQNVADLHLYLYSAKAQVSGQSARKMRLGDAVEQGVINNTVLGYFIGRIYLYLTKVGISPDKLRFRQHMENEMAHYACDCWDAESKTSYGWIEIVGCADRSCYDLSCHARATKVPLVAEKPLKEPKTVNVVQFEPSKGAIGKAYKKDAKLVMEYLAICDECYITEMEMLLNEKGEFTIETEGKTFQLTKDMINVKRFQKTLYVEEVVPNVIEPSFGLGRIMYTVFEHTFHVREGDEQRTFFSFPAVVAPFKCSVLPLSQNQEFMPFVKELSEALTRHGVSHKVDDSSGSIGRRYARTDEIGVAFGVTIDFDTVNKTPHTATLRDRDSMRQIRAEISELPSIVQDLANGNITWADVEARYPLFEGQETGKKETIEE

Kd [1]: 177 nM
B1: ΔWHEP GlyRS (enzyme)
chain: IVDRAKMEDTLKRRFFYDQAFAIYGGVSGLYDFGPVGCALKNNIIQTWRQHFIQEEQILEIDCTMLTPEPVLKTSGHVDKFADFMVKDVKNGECFRADHLLKAHLQKLMSDKKCSVEKKSEMESVLAQLDNYGQQELADLFVNYNVKSPITGNDLSPPVSFNLMFKTFIGPGGNMPGYLRPETAQGIFLNFKRLLEFNQGKLPFAAAQIGNSFRNEISPRSGLIRVREFTMAEIEHFVDPSEKDHPKFQNVADLHLYLYSAKAQVSGQSARKMRLGDAVEQGVINNTVLGYFIGRIYLYLTKVGISPDKLRFRQHMENEMAHYACDCWDAESKTSYGWIEIVGCADRSCYDLSCHARATKVPLVAEKPLKEPKTVNVVQFEPSKGAIGKAYKKDAKLVMEYLAICDECYITEMEMLLNEKGEFTIETEGKTFQLTKDMINVKRFQKTLYVEEVVPNVIEPSFGLGRIMYTVFEHTFHVREGDEQRTFFSFPAVVAPFKCSVLPLSQNQEFMPFVKELSEALTRHGVSHKVDDSSGSIGRRYARTDEIGVAFGVTIDFDTVNKTPHTATLRDRDSMRQIRAEISELPSIVQDLANGNITWADVEARYPLFEGQETGKKETIEE
notes: also called AWHEP GlyRS; core synthetase; not shown: His tag

binding result [3]: binds
B4: APPBP1 in HEK293 cells (endogenous) (enzyme, UniProt Q13564 2-534, looked up)
chain: AQLGKLLKEQKYDRQLRLWGDHGQEALESAHVCLINATATGTEILKNLVLPGIGSFTIIDGNQVSGEDAGNNFFLQRSSIGKNRAEAAMEFLQELNSDVSGSFVEESPENLLDNDPSFFCRFTVVVATQLPESTSLRLADVLWNSQIPLLICRTYGLVGYMRIIIKEHPVIESHPDNALEDLRLDKPFPELREHFQSYDLDHMEKKDHSHTPWIVIIAKYLAQWYSETNGRIPKTYKEKEDFRDLIRQGILKNENGAPEDEENFEEAIKNVNTALNTTQIPSSIEDIFNDDRCINITKQTPSFWILARALKEFVAKEGQGNLPVRGTIPDMIADSGKYIKLQNVYREKAKKDAAAVGNHVAKLLQSIGQAPESISEKELKLLCSNSAFLRVVRCRSLAEEYGLDTINKDEIISSMDNPDNEIVLYLMLRAVDRFHKQQGRYPGVSNYQVEEDIGKLKSCLTGFLQEYGLSVMVKDDYVHEFCRYGAAEPHTIAAFLGGAAAQEVIKIITKQFVIFNNTYIYSGMSQTSATFQL

The next lines start with the binder.

B2: GST-Ubc12 (enzyme)
chain: MIKLFSLKQQKKEEESAGGTKGSSKKASAAQLRIQKDINELNLPKTCDISFSDPDDLLNFKLVICPDEGFYKSGKFVFSFKVGQGYPHDPPKVKCETMVYHPNIDLEGNVCLNILREDWKPVLTINSIIYGLQYLFLEPNPEDPLNKEAAEVLQNNRRLFEQNVQRSMRGGYIGSTYFERCLK
modifications: N-terminal GST fusion, not carried in the letters
notes: Bait on glutathione beads in the GST pull-down; Band between 42 and 57 kDa in the input blot; also called GST-tagged Ubc12; not shown: GST tag and the linker to Ubc12
binding result (ABD (V541-E685) of GlyRS): no binding

B3: Ubc12 (enzyme, UniProt P61081 1-183, looked up)
chain: MIKLFSLKQQKKEEESAGGTKGSSKKASAAQLRIQKDINELNLPKTCDISFSDPDDLLNFKLVICPDEGFYKSGKFVFSFKVGQGYPHDPPKVKCETMVYHPNIDLEGNVCLNILREDWKPVLTINSIIYGLQYLFLEPNPEDPLNKEAAEVLQNNRRLFEQNVQRSMRGGYIGSTYFERCLK
notes: GST-tagged or untagged preparations are mentioned; also called Ubc12 alone; apo Ubc12
Kd [2]: 488 nM
